Measurements published in PMC12339479.

These substances were tested against Chicken ACE2-hFc (soluble chicken ACE2 residues 18-740 fused to human IgG1 Fc) (chicken (Gallus gallus)) (assay: SPR).

| Substance | Kd [µM] | kon [M⁻¹ s⁻¹] |
| --- | --- | --- |
| SARS-CoV-2 Alpha (B.1.1.7) RBD monomer (from UniProt P0DTC2) (domain or fragment) | 409 | 300 |
| SARS-CoV-2 Gamma (P.1) RBD monomer (from UniProt P0DTC2) (domain or fragment) | 44.7 | 4200 |
| SARS-CoV-2 Omicron BA.2 RBD monomer (from UniProt P0DTC2) (domain or fragment) | 0.334 | 258000 |
| SARS-CoV-2 Omicron BA.5 RBD monomer (from UniProt P0DTC2) (domain or fragment) | 0.375 |  |
